Laboratory results taken from paper PMC7530888 (Nucleic Acids Research, 2020).

B1: GST-tagged MtbXthA (enzyme)
chain: MPDGTIDGGHPQRPASPRLRSPLLRLATWNVNSIRTRLDRVLDWLGRADVDVLAMQETKCPDGQFPALPLFELGYDVAHVGFDQWNGVAIASRVGLDDVRVGFDGQPSWSGKPEVAATTEARALGATCGGIRVWSLYVPNGRALDDPHYTYKLDWLAALRDTAEGWLRDDPAAPIALMGDWNIAPTDDDVWSTEFFAGCTHVSEPERKAFNAIVDAQFTDVVRPFTPGPGVYTYWDYTQLRFPKKQGMRIDFILGSPALAARVMDAQIVREERKGKAPSDHAPVLVDLHAG
B2: BRCT domain of MtbLigA, His-tagged (domain or fragment)
chain: SVPRTLAGLTIVVTGSLTGFSRDDAKEAIVARGGKAAGSVSKKTNYVVAGDSPGSKYDKAVELGVPILDEDGFRRLLADGPASRT

Assays:
[1] = target: Full-length His-tagged MtbLigA (M. tuberculosis, UniProt P9WNV1 1-691); test: SPR
[2] = target: B1; test: SPR
[3] = target: B2; test: ITC

Binder | Kd [3] [nM] | other results
B1 | – | Kd [1]: 67.7 nM
B2 | – | Kd [2]: 71.4 nM
DGQPSWSGKP [DGQ peptide (MtbXthA 104-113)] | 2470 | –
YDVAHVGFD [YDV peptide (MtbXthA 75-83)] | 88500 | –
